Test in all cases: cell-based or functional assay
In one test the target is hGLP-1R (Homo sapiens, UniProt P43220).
Test [1] has as its target T1, human GIP receptor (human) (UniProt P48546).
T1 sequence (looked up): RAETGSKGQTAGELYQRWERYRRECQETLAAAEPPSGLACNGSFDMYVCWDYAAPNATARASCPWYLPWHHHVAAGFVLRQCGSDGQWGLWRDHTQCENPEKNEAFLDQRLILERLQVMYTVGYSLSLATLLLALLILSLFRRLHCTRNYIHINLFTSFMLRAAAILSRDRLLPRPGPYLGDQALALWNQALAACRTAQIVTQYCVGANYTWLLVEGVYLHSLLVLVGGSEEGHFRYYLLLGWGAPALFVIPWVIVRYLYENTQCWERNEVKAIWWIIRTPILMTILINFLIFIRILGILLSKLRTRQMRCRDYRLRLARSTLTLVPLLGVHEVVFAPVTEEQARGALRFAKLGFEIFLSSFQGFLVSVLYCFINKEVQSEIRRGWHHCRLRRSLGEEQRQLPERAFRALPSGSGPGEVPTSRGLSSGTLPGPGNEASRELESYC

Test [2] addresses human GLP1-R (SNAP-GLP-1R expressed in HEK293 cells) (human) (UniProt P43220).
Test [3] has as its target human glucagon receptor (human) (UniProt P47871).

Residue numbers refer to the chain shown, from its start.

Chain of human GLP1-R (SNAP-GLP-1R expressed in HEK293 cells) (human) (P43220 24-463): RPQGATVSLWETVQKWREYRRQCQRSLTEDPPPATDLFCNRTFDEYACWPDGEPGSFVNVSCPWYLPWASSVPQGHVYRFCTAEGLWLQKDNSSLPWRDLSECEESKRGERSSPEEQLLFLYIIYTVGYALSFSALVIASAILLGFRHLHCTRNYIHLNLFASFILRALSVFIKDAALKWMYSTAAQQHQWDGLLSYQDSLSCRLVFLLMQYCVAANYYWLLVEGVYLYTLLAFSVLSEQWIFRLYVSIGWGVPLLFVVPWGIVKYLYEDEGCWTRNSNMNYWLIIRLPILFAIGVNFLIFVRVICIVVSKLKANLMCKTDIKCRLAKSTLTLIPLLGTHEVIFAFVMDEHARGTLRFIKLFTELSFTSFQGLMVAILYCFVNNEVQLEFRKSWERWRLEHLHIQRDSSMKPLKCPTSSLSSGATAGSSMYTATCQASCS
Chain of hGLP-1R (P43220 24-463): as above
Chain of human glucagon receptor (human) (P47871 26-477): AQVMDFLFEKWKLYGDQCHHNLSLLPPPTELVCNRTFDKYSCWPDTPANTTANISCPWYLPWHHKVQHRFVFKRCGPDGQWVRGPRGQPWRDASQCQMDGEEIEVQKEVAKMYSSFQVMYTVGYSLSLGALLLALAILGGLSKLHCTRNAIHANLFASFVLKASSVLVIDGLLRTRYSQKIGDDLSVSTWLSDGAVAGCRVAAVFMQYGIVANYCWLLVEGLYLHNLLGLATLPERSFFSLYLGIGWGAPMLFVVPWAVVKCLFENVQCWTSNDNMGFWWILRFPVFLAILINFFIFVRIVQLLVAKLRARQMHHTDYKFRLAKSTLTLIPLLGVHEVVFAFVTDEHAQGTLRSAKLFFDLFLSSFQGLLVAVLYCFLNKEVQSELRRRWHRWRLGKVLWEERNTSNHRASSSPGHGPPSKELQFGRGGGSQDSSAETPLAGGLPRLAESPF

B1: Example 18 (peptide)
chain: YXQGTFTSDFSKXLDKKAQXAFIEYLLEGGPSSGAPPPGGS
modifications: Aib, αMeL; acylated Lys; C-terminal amide; synthetic construct; SITE 2: note = 2-Aminoisobutyric Acid; SITE 13: note = alpha-methyl-leucine; SITE 17: note = Lysine is chemically modified through conjugation of the epsilon-amino group of the Lysine side chain with (2-[2-(2-Amino-ethoxy)-ethoxy]-acetyl)-(gamma-Glu)-CO-(CH2) 18-CO2H; SITE 20: n
On to B1, for which the results for the Relative cAMP EC50 (in the test with hGLP-1R; in test [1]; in test [3]) were 2.31 nM, 0.337 nM and 2.7 nM, respectively. Besides, the cAMP Rel EC50 (in the presence of 1% HSA) with hGLP-1R was found to be 561 nM; in test [1], 59.6 nM; in test [3], 1210 nM. In test [2], this molecule came in with a GLP1R Internalization EC50 of 91.8 nM. Moreover, in test [2], the Internalization % TOP stood at 74.1%.

B2: Example 28 (peptide)
chain: B1 chain with F10X, E28A, A35E, G39S, S41E
modifications: Aib, 4Pal, αMeL; acylated Lys; C-term amide; synthetic construct; SITE 2: note = 2-Aminoisobutyric Acid; SITE 10: note = 3-(4-Pyridyl)-L-alanine; SITE 13: note = alpha-methyl-leucine; SITE 17: note = Lysine is chemically modified through conjugation of the epsilon-amino group of the Lysine side chain with (2-[2-(2-Amino-ethoxy)-ethoxy]-acetyl)
With B2, the Relative cAMP EC50 with hGLP-1R is 3.68 nM; in test [1] it was 0.255 nM; in test [3], 12.6 nM. The cAMP Rel EC50 (in the presence of 1% HSA) with hGLP-1R was 686 nM; in test [1] it was 63.8 nM; in test [3], 1550 nM. The GLP1R Internalization EC50 in test [2] is 81.8 nM. For the same molecule, the Internalization % TOP in test [2] was determined as 76.2%.

B3: Example 23 (peptide)
chain: B1 chain with E28A, A35E, G39S, S41E
modifications: Aib, αMeL, acylated K, C-terminal amide; synthetic construct; SITE 2: note = 2-Aminoisobutyric Acid; SITE 13: note = alpha-methyl-leucine; SITE 17: note = Lysine is chemically modified through conjugation of the epsilon-amino group of the Lysine side chain with (2-[2-(2-Amino-ethoxy)-ethoxy]-acetyl)-(gamma-Glu)-CO-(CH2) 16-CO2H; SITE 20: n
Consider B3, for which the Relative cAMP EC50 in the test with hGLP-1R was 2.98 nM; in test [1], 0.178 nM; in test [3], 5.13 nM. The cAMP Rel EC50 (in the presence of 1% HSA) in the test with hGLP-1R is 308 nM; in test [1], 25.5 nM; in test [3] it was 573 nM. The same molecule returned a GLP1R Internalization EC50 in test [2] of 51.5 nM. In test [2], this molecule came in with an Internalization % TOP of 67.2%.

B4: Example 21 (peptide)
chain: B1 chain with Y25W, E28A, A35E, G39S, S41E
modifications: Aib, αMeL; acylated Lys; C-term amide; synthetic construct; SITE 2: note = 2-Aminoisobutyric Acid; SITE 13: note = alpha-methyl-leucine; SITE 17: note = Lysine is chemically modified through conjugation of the epsilon-amino group of the Lysine side chain with (2-[2-(2-Amino-ethoxy)-ethoxy]-acetyl)-(gamma-Glu)-CO-(CH2) 18-CO2H; SITE 20: n
On to B4, for which the results for the Relative cAMP EC50 (with hGLP-1R; in test [1]; in test [3]) were 2.7 nM, 0.218 nM and 12.4 nM, respectively. Moreover, the figures for the cAMP Rel EC50 (in the presence of 1% HSA) (in the test with hGLP-1R; in test [1]; in test [3]) were 324 nM, 29.1 nM and 1510 nM, respectively. In addition, in test [2], the GLP1R Internalization EC50 amounted to 87.6 nM. This molecule had an Internalization % TOP in test [2] of 72.5%.

B5: Example 24 (peptide)
chain: B1 chain with E28A, G30A, G39S, G40E, S41G
modifications: Aib, αMeL; acylated lysine; C-terminal amide; synthetic construct; SITE 2: note = 2-Aminoisobutyric Acid; SITE 13: note = alpha-methyl-leucine; SITE 17: note = Lysine is chemically modified through conjugation of the epsilon-amino group of the Lysine side chain with (2-[2-(2-Amino-ethoxy)-ethoxy]-acetyl)-(gamma-Glu)-CO-(CH2) 18-CO2H; SITE 20: n
On to B5, for which the Relative cAMP EC50 with hGLP-1R was 3.09 nM; in test [1], 0.308 nM; in test [3], 9.66 nM. The cAMP Rel EC50 (in the presence of 1% HSA) with hGLP-1R amounted to 447 nM; in test [1], 102 nM; in test [3], 1390 nM. This molecule also registered a GLP1R Internalization EC50 in test [2] of 79.9 nM. Besides, in test [2], the Internalization % TOP came out at 71.9%.

B6: Example 22 (peptide)
chain: B1 chain with E28A, A35E, G39S, G40E, S41G
modifications: Aib, αMeL; acyl on Lys; C-terminal amide; synthetic construct; SITE 2: note = 2-Aminoisobutyric Acid; SITE 13: note = alpha-methyl-leucine; SITE 17: note = Lysine is chemically modified through conjugation of the epsilon-amino group of the Lysine side chain with (2-[2-(2-Amino-ethoxy)-ethoxy]-acetyl)-(gamma-Glu)-CO-(CH2) 16-CO2H; SITE 20: n
Consider B6, for which, in the test with hGLP-1R, the Relative cAMP EC50 worked out at 2.94 nM and the cAMP Rel EC50 (in the presence of 1% HSA) is 592 nM. In test [1], the Relative cAMP EC50 is 0.246 nM and the cAMP Rel EC50 (in the presence of 1% HSA) is 81 nM. Also, in test [2], the GLP1R Internalization EC50 was determined as 41.9 nM and the Internalization % TOP came out at 64.7%. Besides, in test [3], the Relative cAMP EC50 came out at 5.42 nM and the cAMP Rel EC50 (in the presence of 1% HSA) stood at 532 nM.

B7: Example 26 (peptide)
chain: YXQGTFTSDFSKXLDKKAQXQFIEYLLAGGPSSGEPPPSEG
modifications: Lys acylated; Aib, αMeL; C-terminal amide; synthetic construct; SITE 2: note = 2-Aminoisobutyric Acid; SITE 13: note = alpha-methyl-leucine; SITE 17: note = Lysine is chemically modified through conjugation of the epsilon-amino group of the Lysine side chain with (2-[2-(2-Amino-ethoxy)-ethoxy]-acetyl)-(gamma-Glu)-CO-(CH2) 16-CO2H; SITE 20: n
Take B7: in the test with hGLP-1R, the Relative cAMP EC50 was 3.44 nM and the cAMP Rel EC50 (in the presence of 1% HSA) is 623 nM. Also, in test [1], the Relative cAMP EC50 amounted to 0.2 nM and the cAMP Rel EC50 (in the presence of 1% HSA) worked out at 35.4 nM. For the same molecule, in test [2], the GLP1R Internalization EC50 was determined as 96.1 nM and the Internalization % TOP stood at 75.6%. Besides, in test [3], the Relative cAMP EC50 amounted to 4.82 nM and the cAMP Rel EC50 (in the presence of 1% HSA) came out at 980 nM.

Source of the values: patent publication US20240270821A1, “GIP/GLP1/GCG TRI-RECEPTOR AGONISTS AND USES THEREOF” (priority 2023, published 2024).
